This is an account of results in US20230174651A1.

Test [1] concerns the target CD79b CAR with CD8α hinge as the spacer. In words: flow cytometry, NK cell line-2 transduced with CD79b CAR construct 441HL at MOI 20, AF647-CD79b at 1 µg/ml; same gate on untransduced (UTD) cells 0.32. (Flow cytometry measures light scatter and fluorescence of single cells or particles in a stream.)
For test [2] the target is unchanged. In words: flow cytometry, NK cell line-1 transduced with CD79b CAR construct 137LH at MOI 5, AF647-CD79b at 1 µg/ml; same gate on untransduced (UTD) cells 0.23.
Test [3] has the same target. Kind of test: flow cytometry, NK cell line-1 transduced with CD79b CAR construct 441HL at MOI 20, AF647-CD79b at 1 µg/ml; same gate on untransduced (UTD) cells 0.23.
For test [4] the target is unchanged. In words: flow cytometry, NK cell line-2 transduced with CD79b CAR construct 137LH at MOI 20, AF647-CD79b at 1 µg/ml; same gate on untransduced (UTD) cells 0.32.
Test [5] shares this target. In words: flow cytometry, NK cell line-2 transduced with CD79b CAR construct 441HL at MOI 5, AF647-CD79b at 1 µg/ml; same gate on untransduced (UTD) cells 0.32.
Test [6] shares this target. Kind of test: flow cytometry, NK cell line-1 transduced with CD79b CAR construct 137LH at MOI 20, AF647-CD79b at 1 µg/ml; same gate on untransduced (UTD) cells 0.23.
Test [7] has the same target. Kind of test: flow cytometry, NK cell line-1 transduced with CD79b CAR construct 441HL at MOI 5, AF647-CD79b at 1 µg/ml; same gate on untransduced (UTD) cells 0.23.
The target is the same in test [8]. In words: flow cytometry, NK cell line-2 transduced with CD79b CAR construct 137LH at MOI 5, AF647-CD79b at 1 µg/ml; same gate on untransduced (UTD) cells 0.32.

AF647-CD79b, sequence (P40259 29-159 limits assumed): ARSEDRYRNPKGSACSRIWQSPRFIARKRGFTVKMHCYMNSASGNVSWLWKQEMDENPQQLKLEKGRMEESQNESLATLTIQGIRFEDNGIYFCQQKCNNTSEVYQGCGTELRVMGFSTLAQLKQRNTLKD

With “AF647-CD79b (from UniProt P40259 29-159)”, the % positive (CD79b CAR+ NK cells) in test [1] worked out at 85.2%; in test [2], 67.1%; in test [3], 80.8%; in test [4], 71.2%; in test [5] it was 72.2%; in test [6], 74.5%. Further, the % positive (CD79b CAR+ NK cells) in test [7] turned out to be 69.9%; in test [8], 47.4%.
